Measured values reported in IntAct's records for PubMed 29039417.

B1: Isoform 2 of Bardet-Biedl syndrome 7 protein (Homo sapiens), Q8IWZ6-2 (parent)
chain: MDLILNRMDYLQVGVTSQKTMKLIPASRHRATQKVVIGDHDGVVMCFGMKKGEAAAVFKTLPGPKIARLELGGVINTPQEKIFIAAASEIRGFTKRGKQFLSFETNLTESIKAMHISGSDLFLSASYIYNHYCDCKDQHYYLSGDKINDVICLPVERLSRITPVLACQDRVLRVLQGSDVMYAVEVPGPPTVLALHNGNGGDSGEDLLFGTSDGKLALIQITTSKPVRKWEIQNEKKRGGILCIDSFDIVGDGVKDLLVGRDDGMVEVYSFDNANEPVLRFDQMLSESVTSIQGGCVGKDSYDEIVVSTYSGWVTGLTTEPIHKESGPGEELKINQEMQNKISSLRNELEHLQYKVLQERENYQQSSQSSKAKSAVPSFGINDKFTLNKDDASYSLILEVQTAIDNVLIQSDVPIDLLDVDKNSAVVSFSSCDSESNDNFLLATYRCQADTTRLELKIRSIEGQYGTLQAYVTPRIQPKTCQVRQYHIKPLSLHQRTHFIDHDRPMNTLTLTGQFSFAEVHSWVVFCLPEVPEKPPAGECVTFYFQNTFLDTQLESTYRKGEGVFKSDNISTISILKDVLSKEATKRKINLNISYEINEVSVKHTLKLIHPKLEYQLLLAKKVQLIDALKELQIHEGNTNFLIPEYHCILEEADHLQEEYKKQPAHLERLYG
partner: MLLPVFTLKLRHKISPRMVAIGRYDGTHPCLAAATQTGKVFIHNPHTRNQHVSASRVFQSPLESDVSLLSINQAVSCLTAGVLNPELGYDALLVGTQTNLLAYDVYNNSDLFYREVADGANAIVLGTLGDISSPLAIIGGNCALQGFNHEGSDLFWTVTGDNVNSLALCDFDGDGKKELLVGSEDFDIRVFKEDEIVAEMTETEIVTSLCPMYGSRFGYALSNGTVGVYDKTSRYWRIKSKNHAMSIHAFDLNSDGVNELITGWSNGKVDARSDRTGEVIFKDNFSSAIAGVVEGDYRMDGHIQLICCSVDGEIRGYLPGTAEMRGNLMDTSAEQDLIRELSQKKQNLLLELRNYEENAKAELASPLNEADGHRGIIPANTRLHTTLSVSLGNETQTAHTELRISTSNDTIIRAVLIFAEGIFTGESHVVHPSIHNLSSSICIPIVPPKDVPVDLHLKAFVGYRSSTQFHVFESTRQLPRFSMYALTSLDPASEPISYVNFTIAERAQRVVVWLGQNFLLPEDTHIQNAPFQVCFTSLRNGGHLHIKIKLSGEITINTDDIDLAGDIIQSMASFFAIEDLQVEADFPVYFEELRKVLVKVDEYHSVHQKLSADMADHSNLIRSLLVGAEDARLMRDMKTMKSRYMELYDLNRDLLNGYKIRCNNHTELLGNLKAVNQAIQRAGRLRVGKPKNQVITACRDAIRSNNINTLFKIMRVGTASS

Variants of: B1
Settings: with bbs2_human BBS2, Q9BXC9

Effect of a mutation on the interaction, with no effect:
V427E
V427K
S428A
S428E
S428K
F429A
F429E
F429K
S430A
S430E
S430K
S431A
S431E
S431K
C432A
C432E
C432K
D433A
D433E
D433K
S434A
S434E
S434K
E435A
E435K
S436A
S436E
S436K
N437A
N437E
N437K
D438A
D438E
D438K
N439E
N439K
F440A
F440E
F440K
L441A
L441E
L441K
L442A
L442E
L442K
A443K
T444A
T444E
T444K
Y445A
Y445E
Y445K
R446A
R446E
R446K
C447A
C447E
C447K
Q448A
Q448E
A449E
A449K
D450A
D450E
D450K
T451A
T451E
T451K
T452A
T452E
T452K
R453A
R453E
R453K
L454A
L454E
L454K
E455A
L456A
L456E
L456K
K457A
K457E
R459A
R459E
R459K
S460A
S460E
S460K
I461A
I461E
I461K
E462A
E462K
G463A
G463E
G463K
Q464A
Q464E
Q464K
Y465A
Y465E
Y465K
G466A
G466K
T467A
T467E
T467K
L468A
L468E
L468K
Q469E
Q469K
A470E
A470K
Y471A
Y471E
Y471K
V472A
V472K
T473A
T473E
T473K
P474A
R475E
R475K
I476E
I476K
Q477E
Q477K
P478A
P478E
P478K
K479A
K479E
T480A
T480E
T480K
C481A
C481E
C481K
Q482A
Q482E
Q482K
V483A
V483E
V483K
R484A
R484E

Effect of a mutation on the interaction, disrupting interaction strength:
N439A
L442P
A443E
C447Y
Q448K
A449T
E455K
I458A
I458E
I458K
I458Q
G466D
G466E
G466Y
L468P
Q469A
V472E
V472M
P474E
P474K
R475A
I476A
Q477A
C481R
V483I

Variants of: B1
Settings: with bbs2_human BBS2, Q9BXC9
Remark: another data set of the same source

Effect of a mutation on the interaction, with no effect:
I458E
